These results are taken from US20240139329A1 (CALIFORNIA INSTITUTE OF TECHNOLOGY, published 2024).

The target in assay [1] is T1, Mouse SCA1 (LY6A), on cells (mouse, UniProt P05533 27-112).
T1 construct: whole, on cells; also called mouse LY6A
T1 sequence: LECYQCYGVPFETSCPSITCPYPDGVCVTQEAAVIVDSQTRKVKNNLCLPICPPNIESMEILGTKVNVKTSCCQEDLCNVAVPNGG
As to the kind of experiment: cell microarray, individual capsids, anti-AAV9 detection.
Description: To enable higher-throughput screening, the six capsids were tested as a pool. Pooled testing required additional dosage optimizing, first for the individual and then for the collective background binding levels of the included capsids (Table 5).

Assay [2] addresses T2, human interleukin 3 (IL3), expressed on microarray cells (human, UniProt P08700 20-152).
T2 construct: also called hIL3
T2 sequence: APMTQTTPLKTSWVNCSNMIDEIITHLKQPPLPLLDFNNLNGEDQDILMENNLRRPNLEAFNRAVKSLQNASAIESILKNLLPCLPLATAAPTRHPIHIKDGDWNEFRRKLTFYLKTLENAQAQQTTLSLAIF
Nature of the assay: cell microarray screen hit (title of Table 4).

Assay [3] concerns the target T3, human pancreatic secretory granule membrane major glycoprotein GP2 (GP2), on cells (human, UniProt P55259 29-512).
T3 construct: also called glycoprotein 2; hGP2
As to the kind of experiment: cell microarray screen hit (membrane).
Description: (§1) After these controls, the six-capsid pool was tested in a full screen of approximately 6400 proteins, including 6000 human plasma membrane proteins and secreted and cell surface-tethered proteins, as well as approximately 400 heterodimers. […] To assign these hits to specific capsids, follow-up deconvolution screens were performed with each individual capsid from the pool (FIG. 12E). DNA oligos for the 22 identified hits, as well as the positive control CD86, were affixed in duplicate locations to new slides. A negative control condition with no AAV analyte and a positive control condition with CTLA4-Fc (CD86 binder) were also included.

In assay [4] the target is T4, human low-density lipoprotein receptor-related protein 6 (LRP6), on cells (human, UniProt O75581 20-1613).
T4 construct: also called hLRP6
As to the kind of experiment: cell microarray screen hit (membrane).
Description: as §1

In assay [5] the target is T5, human GP2 (AA 1-518) triple tagged with Fc-Myc-6×His (human, UniProt P55259 29-518).
T5 construct: also called human GP2-Fc; not shown: Fc and Myc tags
Nature of the assay: validated interaction (cell culture potency assay and/or SPR).

Assay [6] deals with T6, mouse LRP6-E3E4 (C-half, AA 629-1244) tagged with Fc (mouse IgG2a) (mouse, UniProt O88572 629-1244).
T6 construct: not shown: mouse IgG2a Fc
T6 sequence: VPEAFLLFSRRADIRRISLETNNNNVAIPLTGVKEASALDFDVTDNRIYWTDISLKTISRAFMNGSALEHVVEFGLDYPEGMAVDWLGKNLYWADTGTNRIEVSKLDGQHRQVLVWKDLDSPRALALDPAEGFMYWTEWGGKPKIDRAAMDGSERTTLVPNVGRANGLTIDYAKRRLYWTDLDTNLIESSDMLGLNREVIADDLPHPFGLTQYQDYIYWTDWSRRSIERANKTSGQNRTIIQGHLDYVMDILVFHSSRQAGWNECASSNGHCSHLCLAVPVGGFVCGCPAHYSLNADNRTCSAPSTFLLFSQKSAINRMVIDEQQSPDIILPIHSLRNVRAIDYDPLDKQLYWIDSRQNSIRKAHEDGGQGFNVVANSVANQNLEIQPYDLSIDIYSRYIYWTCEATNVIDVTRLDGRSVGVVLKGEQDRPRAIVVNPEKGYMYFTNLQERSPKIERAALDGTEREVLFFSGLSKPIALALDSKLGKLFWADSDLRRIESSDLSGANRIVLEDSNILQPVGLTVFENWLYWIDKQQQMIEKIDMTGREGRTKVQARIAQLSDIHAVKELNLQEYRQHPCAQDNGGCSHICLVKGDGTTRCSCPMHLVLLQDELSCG
Nature of the assay: SPR, target-Fc captured on protein A chip, AAV analyte (FIG. 14D). (In general: SPR reads the build-up and loss of mass on a sensor chip optically.)

Assay [7] deals with T7, mouse LRP6-E1E2 (N-half, AA 20-628) tagged with Fc (mouse IgG2a) (mouse, UniProt O88572 20-628).
T7 construct: not shown: mouse IgG2a Fc
T7 sequence: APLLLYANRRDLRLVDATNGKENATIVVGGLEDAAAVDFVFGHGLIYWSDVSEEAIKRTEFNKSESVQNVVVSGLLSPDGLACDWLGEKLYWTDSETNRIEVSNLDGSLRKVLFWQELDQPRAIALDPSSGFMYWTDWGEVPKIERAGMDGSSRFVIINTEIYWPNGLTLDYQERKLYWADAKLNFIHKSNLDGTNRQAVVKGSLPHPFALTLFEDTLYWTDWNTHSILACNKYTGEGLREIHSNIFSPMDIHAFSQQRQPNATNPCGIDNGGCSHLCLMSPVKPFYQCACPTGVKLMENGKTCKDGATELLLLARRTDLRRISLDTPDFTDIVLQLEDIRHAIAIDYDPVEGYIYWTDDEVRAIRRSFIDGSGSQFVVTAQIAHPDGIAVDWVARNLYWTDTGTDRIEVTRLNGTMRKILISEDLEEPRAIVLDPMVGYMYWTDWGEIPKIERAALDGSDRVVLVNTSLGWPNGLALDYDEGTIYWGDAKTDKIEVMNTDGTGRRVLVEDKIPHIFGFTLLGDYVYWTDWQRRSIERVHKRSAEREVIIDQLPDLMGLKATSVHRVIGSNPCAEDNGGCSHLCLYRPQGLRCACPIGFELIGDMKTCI
The description is as above.

The target of assay [8] is T4, human low-density lipoprotein …. As to the kind of experiment: cell microarray screen.

T3 sequence (P55259 29-512 limits assumed): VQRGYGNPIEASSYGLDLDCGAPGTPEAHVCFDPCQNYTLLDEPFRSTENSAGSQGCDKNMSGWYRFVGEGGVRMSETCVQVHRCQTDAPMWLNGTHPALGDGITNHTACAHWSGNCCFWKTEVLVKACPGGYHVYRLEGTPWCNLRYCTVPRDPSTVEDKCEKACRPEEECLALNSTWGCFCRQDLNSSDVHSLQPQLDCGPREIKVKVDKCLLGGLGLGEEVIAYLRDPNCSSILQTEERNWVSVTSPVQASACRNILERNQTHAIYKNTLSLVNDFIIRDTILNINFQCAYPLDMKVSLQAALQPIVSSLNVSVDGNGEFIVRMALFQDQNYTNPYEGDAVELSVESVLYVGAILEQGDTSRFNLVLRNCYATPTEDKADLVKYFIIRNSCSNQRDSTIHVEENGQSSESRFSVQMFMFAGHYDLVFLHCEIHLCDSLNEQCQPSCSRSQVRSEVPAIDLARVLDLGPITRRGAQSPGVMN
T5 sequence (P55259 29-518): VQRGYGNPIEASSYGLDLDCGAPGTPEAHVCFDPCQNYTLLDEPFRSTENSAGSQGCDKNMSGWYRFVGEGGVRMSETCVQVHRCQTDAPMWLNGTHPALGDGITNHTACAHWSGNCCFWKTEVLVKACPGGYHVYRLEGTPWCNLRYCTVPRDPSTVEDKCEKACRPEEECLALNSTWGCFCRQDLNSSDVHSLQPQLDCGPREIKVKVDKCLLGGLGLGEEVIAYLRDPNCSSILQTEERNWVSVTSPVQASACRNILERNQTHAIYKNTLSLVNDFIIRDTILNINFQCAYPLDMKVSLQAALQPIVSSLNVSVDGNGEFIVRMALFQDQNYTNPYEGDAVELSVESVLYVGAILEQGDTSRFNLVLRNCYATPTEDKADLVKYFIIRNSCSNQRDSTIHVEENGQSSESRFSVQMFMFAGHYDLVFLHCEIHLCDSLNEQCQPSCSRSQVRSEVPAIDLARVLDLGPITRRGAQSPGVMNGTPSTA

B1: AAV9-X1.1 (other)
chain: MAADGYLPDWLEDNLSEGIREWWALKPGAPQPKANQQHQDNARGLVLPGYKYLGPGNGLDKGEPVNAADAAALEHDKAYDQQLKAGDNPYLKYNHADAEFQERLKEDTSFGGNLGRAVFQAKKRLLEPLGLVEEAAKTAPGKKRPVEQSPQEPDSSAGIGKSGAQPAKKRLNFGQTGDTESVPDPQPIGEPPAAPSGVGSLTMASGGGAPVADNNEGADGVGSSSGNWHCDSQWLGDRVITTSTRTWALPTYNNHLYKQISNSTSGGSSNDNAYFGYSTPWGYFDFNRFHCHFSPRDWQRLINNNWGFRPKRLNFKLFNIQVKEVTDNNGVKTIANNLTSTVQVFTDSDYQLPYVLGSAHEGCLPPFPADVFMIPQYGYLTLNDGSQAVGRSSFYCLEYFPSQMLRTGNNFQFSYEFENVPFHSSYAHSQSLDRLMNPLIDQYLYYLSRTIDGAATKNQTLKFSVAGPSNMAVQGRNYIPGPSYRQQRVSTTVTQNNNSEFAWPGASSWALNGRNSLMNPGPAMASHKEGEDRFFPLSGSLIFGKQGTGRDNVDADKVMITNEEEIKTTNPVATESYGQVATNHQSAQGNNTRSVAQAQTGWVQNQGILPGMVWQDRDVYLQGPIWAKIPHTDGNFHPSPLMGGFGMKHPPPQILIKNTPVPADPPTAFNKDKLNSFITQYSTGQVSVEIEWELQKENSKRWNPEIQYTSNYYKSNNVEFAVNTEGVYSEPRPIGTRYLTRNL
notes: also called AAV-X1.1; X1B10
Regarding B1, the binding result in assay [1] is recorded as “no binding”; in assay [2] it was “binds”; in assay [3], “binds”; in assay [4], “binds”; in assay [5], “binds”; in assay [6], “no binding”. Besides, the binding result in assay [7] is recorded as “binds”.

B2: AAV.CAP-Mac (other)
chain: MAADGYLPDWLEDNLSEGIREWWALKPGAPQPKANQQHQDNARGLVLPGYKYLGPGNGLDKGEPVNAADAAALEHDKAYDQQLKAGDNPYLKYNHADAEFQERLKEDTSFGGNLGRAVFQAKKRLLEPLGLVEEAAKTAPGKKRPVEQSPQEPDSSAGIGKSGAQPAKKRLNFGQTGDTESVPDPQPIGEPPAAPSGVGSLTMASGGGAPVADNNEGADGVGSSSGNWHCDSQWLGDRVITTSTRTWALPTYNNHLYKQISNSTSGGSSNDNAYFGYSTPWGYFDFNRFHCHFSPRDWQRLINNNWGFRPKRLNFKLFNIQVKEVTDNNGVKTIANNLTSTVQVFTDSDYQLPYVLGSAHEGCLPPFPADVFMIPQYGYLTLNDGSQAVGRSSFYCLEYFPSQMLRTGNNFQFSYEFENVPFHSSYAHSQSLDRLMNPLIDQYLYYLSRTINGSGQNQQTLKFSVAGPSNMAVQGRNYIPGPSYRQQRVSTTVTQNNNSEFAWPGASSWALNGRNSLMNPGPAMASHKEGEDRFFPLSGSLIFGKQGTGRDNVDADKVMITNEEEIKTTNPVATESYGQVATNHQSAQLNTTKPIAQAQTGWVQNQGILPGMVWQDRDVYLQGPIWAKIPHTDGNFHPSPLMGGFGMKHPPPQILIKNTPVPADPPTAFNKDKLNSFITQYSTGQVSVEIEWELQKENSKRWNPEIQYTSNYYKSNNVEFAVNTEGVYSEPRPIGTRYLTRNL
notes: also called CAP-C1
In the case of B2, the binding result in assay [1] is reported as “no binding”; in assay [2], “binds”; in assay [3], “binds”; in assay [8], “binds”; in assay [6], “no binding”; in assay [7], “binds”.
